The assay has as its target T1, human transferrin receptor (recombinant, for surface plasmon resonance) (human, UniProt P02786 89-760).
T1 construct: also called huTfR; human transferrin receptor-biotinylated
Description: SPR 25C.

T1 sequence (P02786 89-760 limits assumed): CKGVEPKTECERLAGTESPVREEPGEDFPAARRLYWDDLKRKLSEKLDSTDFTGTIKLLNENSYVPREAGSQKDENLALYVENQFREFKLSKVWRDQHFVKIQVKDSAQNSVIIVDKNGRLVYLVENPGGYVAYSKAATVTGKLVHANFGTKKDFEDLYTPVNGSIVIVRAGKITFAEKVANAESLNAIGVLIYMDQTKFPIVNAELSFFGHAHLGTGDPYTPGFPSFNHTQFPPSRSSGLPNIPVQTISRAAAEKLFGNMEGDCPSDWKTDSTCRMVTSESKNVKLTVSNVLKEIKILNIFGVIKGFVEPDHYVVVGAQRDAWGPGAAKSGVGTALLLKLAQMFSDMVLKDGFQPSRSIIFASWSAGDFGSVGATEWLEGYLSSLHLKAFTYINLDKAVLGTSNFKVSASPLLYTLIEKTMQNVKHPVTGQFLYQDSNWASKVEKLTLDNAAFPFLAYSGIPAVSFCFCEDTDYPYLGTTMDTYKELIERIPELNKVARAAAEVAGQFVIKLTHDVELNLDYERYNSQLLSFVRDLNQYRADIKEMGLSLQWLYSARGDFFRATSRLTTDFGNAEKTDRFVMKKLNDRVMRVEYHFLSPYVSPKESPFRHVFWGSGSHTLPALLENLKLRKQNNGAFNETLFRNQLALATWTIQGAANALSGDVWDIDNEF

B1: 2/99 VH0(rb)/VL9-NYA (antibody, V domains shown)
VH: QSMEESGGRLVTPGTPLTLTCTVSGFSLSSYAMSWVRQAPGKGLEWIGYIWSGGSTDYASWAKGRFTISKTSTTVDLKITSPTTEDTATYFCARRYGTSYPDYGDANGFDPWGPGTLVTVSS
VL: AIQLTQSPSSLSASVGDRVTITCRASQSISSYLAWYQQKPGKAPKLLIYRASTLASGVPSRFSGSGSGTDFTLTISSLQPEDFATYYCQQNYASSNVDNTFGGGTKVEI
What is called koff is the rate constant with which the complex falls apart. B1: the koff was found to be 0.00141 s⁻¹.

B2: 2/99 VH23-DANG/VL8 (antibody, V domains shown)
VH: QSMQESGPGLVKPSQTLSLTCTVSGFSLSSYAMSWIRQHPGKGLEWIGYIWSGGSTDYASWAKSRVTISKTSTTVSLKLSSVTAADTAVYYCARRYGTSYPDYGDANGFDPWGQGTLVTVSS
VL: AYQLTQSPSSLSASVGDRVTITCRASQSISSYLSWYQQKPGKAPKLLIYRASTLASGVPSRFSGSGSGTDFTLTISSLQPEDFATYYCQQSYSSSNVDNTFGGGTKVEIK
Turning to B2, the koff is 0.000941 s⁻¹.

B3: 2/99 VH17/VL10 (antibody, V domains shown)
VH: QQLQESGPGLVKPSETLSLTCTVSGFSLSSYAMSWVRQPPGKGLEWIGYIWSGGSTDYNPSLKSRVTISKDTSKNQVSLKLSSVTAADTAVYYCARRYGTSYPDYGDANGFDPWGPGTLVTVSS
VL: DIQMTQSPSSLSASVGDRVTITCRASQSISSYLSWYQQKPGKAPKLLIYRASTLASGVPSRFSGSRSGTDFTLTISSLQPEDFATYYCQQSYSSSNVDNTFGGGTKVEIK
As for B3, the koff amounted to 0.00188 s⁻¹.

B4: 2/99 VH5/VL10 (antibody, V domains shown)
VH: QSMEETGGGLIQPGGSLRLSCAASGFSLSSYAMSWVRQAPGKGLEWVGYIWSGGSTDYADSVKGRFTISRDNSKNTLYLQMNSLRAEDTAVYYCARRYGTSYPDYGDANGFDPWGPGTLVTVSS
VL: DIQMTQSPSSLSASVGDRVTITCRASQSISSYLSWYQQKPGKAPKLLIYRASTLASGVPSRFSGSRSGTDFTLTISSLQPEDFATYYCQQSYSSSNVDNTFGGGTKVEIK
As for B4, the koff was 0.00653 s⁻¹.

B5: 2/99 VH15/VL10 (antibody, V domains shown)
VH: QQLQESGPGLVKPSETLSLTCTVSGFSLSSYAMSWVRQPPGKGLEWIGYIWSGGSTDYNPSLKSRVTISVDTSKNQVSLKLSSVTAADTAVYYCARRYGTSYPDYGDANGFDPWGQGTLVTVSS
VL: DIQMTQSPSSLSASVGDRVTITCRASQSISSYLSWYQQKPGKAPKLLIYRASTLASGVPSRFSGSRSGTDFTLTISSLQPEDFATYYCQQSYSSSNVDNTFGGGTKVEIK
As to B5, the koff worked out at 0.00399 s⁻¹.

B6: 2/99 VH9/VL10 (antibody, V domains shown)
VH: QQLLESGGGLVQPGGSLRLSCAASGFTFSSYAMSWVRQAPGKGLEWVGYIWSGGSTDYADSVKGRFTISRDNSKNTLYLQMNSLRAEDTAVYYCAKRYGTSYPDYGDANGFDPWGQGTLVTVSS
VL: DIQMTQSPSSLSASVGDRVTITCRASQSISSYLSWYQQKPGKAPKLLIYRASTLASGVPSRFSGSRSGTDFTLTISSLQPEDFATYYCQQSYSSSNVDNTFGGGTKVEIK
Regarding B6, the koff was 0.00719 s⁻¹.

B7: 2/99 VH16/VL10 (antibody, V domains shown)
VH: QQLQESGPGLVKPSETLSLTCTVSGFSLSSYAMSWVRQPPGKGLEWIGYIWSGGSTDYNPSLKSRVTISVDTSKNQVSLKLSSVTAADTAVYYCARRYGTSYPDYGDANGFDPWGPGTLVTVSS
VL: DIQMTQSPSSLSASVGDRVTITCRASQSISSYLSWYQQKPGKAPKLLIYRASTLASGVPSRFSGSRSGTDFTLTISSLQPEDFATYYCQQSYSSSNVDNTFGGGTKVEIK
Consider B7, for which the koff came to 0.00424 s⁻¹.

B8: 2/99 VH11/VL10 (antibody, V domains shown)
VH: QQLLESGGGLVQPGGSLRLSCAASGFSLSSYAMSWVRQAPGKGLEWVGYIWSGGSTDYADSVKGRFTISRDNSKNTLYLQMNSLRAEDTAVYYCARRYGTSYPDYGDANGFDPWGQGTLVTVSS
VL: DIQMTQSPSSLSASVGDRVTITCRASQSISSYLSWYQQKPGKAPKLLIYRASTLASGVPSRFSGSRSGTDFTLTISSLQPEDFATYYCQQSYSSSNVDNTFGGGTKVEIK
Consider B8, for which the koff was 0.00716 s⁻¹.

B9: 2/99 VH6/VL10 (antibody, V domains shown)
VH: QQLVETGGGLIQPGGSLRLSCAASGFSLSSYAMSWVRQAPGKGLEWIGYIWSGGSTDYADSVKGRFTISRDNSKNTLYLQMNSLRAEDTAVYYCARRYGTSYPDYGDANGFDPWGQGTLVTVSS
VL: DIQMTQSPSSLSASVGDRVTITCRASQSISSYLSWYQQKPGKAPKLLIYRASTLASGVPSRFSGSRSGTDFTLTISSLQPEDFATYYCQQSYSSSNVDNTFGGGTKVEIK
On to B9, for which the koff amounted to 0.00455 s⁻¹.

B10: 2/99 VH12/VL10 (antibody, V domains shown)
VH: QVQLQESGPGLVKPSETLSLTCTVSGFSLSSYAMSWIRQPPGKGLEWIGYIWSGGSTDYNPSLKSRVTISVDTSKNQFSLKLSSVTAADTAVYYCARRYGTSYPDYGDANGFDPWGQGTLVTVSS
VL: DIQMTQSPSSLSASVGDRVTITCRASQSISSYLSWYQQKPGKAPKLLIYRASTLASGVPSRFSGSRSGTDFTLTISSLQPEDFATYYCQQSYSSSNVDNTFGGGTKVEIK
B10: the koff was 0.00779 s⁻¹.

B11: 2/99 VH2/VL10 (antibody, V domains shown)
VH: EVQLVETGGGLIQPGGSLRLSCAASGFSLSSYAMSWVRQAPGKGLEWVGYIWSGGSTDYADSVKGRFTISRDNSKNTLYLQMNSLRAEDTAVYYCARRYGTSYPDYGDANGFDPWGQGTLVTVSS
VL: DIQMTQSPSSLSASVGDRVTITCRASQSISSYLSWYQQKPGKAPKLLIYRASTLASGVPSRFSGSRSGTDFTLTISSLQPEDFATYYCQQSYSSSNVDNTFGGGTKVEIK
On to B11, for which the koff was 0.00649 s⁻¹.

B12: 2/99 VH13/VL10 (antibody, V domains shown)
VH: QVQLQESGPGLVKPSETLSLTCTVSGFSLSSYAMSWIRQPPGKGLEWIGYIWSGGSTDYNPSLKSRVTISVDTSKNQVSLKLSSVTAADTAVYYCARRYGTSYPDYGDANGFDPWGQGTLVTVSS
VL: DIQMTQSPSSLSASVGDRVTITCRASQSISSYLSWYQQKPGKAPKLLIYRASTLASGVPSRFSGSRSGTDFTLTISSLQPEDFATYYCQQSYSSSNVDNTFGGGTKVEIK
For the molecule B12, the off-rate constant (koff) amounted to 0.00589 s⁻¹.

B13: 2/99 VH1/VL10 (antibody, V domains shown)
VH: VQLVETGGGLIQPGGSLRLSCAASGFSLSSYAMSWVRQAPGKGLEWVGYIWSGGSTDYADSVKGRFTISRDNSKNTLYLQMNSLRAEDTAVYYCARRYGTSYPDYGDANGFDPWGQGTLVTVSS
VL: DIQMTQSPSSLSASVGDRVTITCRASQSISSYLSWYQQKPGKAPKLLIYRASTLASGVPSRFSGSRSGTDFTLTISSLQPEDFATYYCQQSYSSSNVDNTFGGGTKVEIK
On to B13, for which the koff is 0.00677 s⁻¹.

B14: 2/99 VH7/VL10 (antibody, V domains shown)
VH: QQLVETGGGLIQPGGSLRLSCAASGFSLSSYAMSWVRQAPGKGLEWIGYIWSGGSTDYASWAKGRFTISRDNSKNTLYLQMNSLRAEDTAVYYCARRYGTSYPDYGDANGFDPWGQGTLVTVSS
VL: DIQMTQSPSSLSASVGDRVTITCRASQSISSYLSWYQQKPGKAPKLLIYRASTLASGVPSRFSGSRSGTDFTLTISSLQPEDFATYYCQQSYSSSNVDNTFGGGTKVEIK
As for B14, the koff came to 0.00264 s⁻¹.

B15: 2/99 VH8/VL10 (antibody, V domains shown)
VH: QQLVETGGGLIQPGGSLRLSCAASGFSLSSYAMSWVRQAPGKGLEWIGYIWSGGSTDYASWAKGRFTISKTSTTLYLQMNSLRAEDTAVYYCARRYGTSYPDYGDANGFDPWGQGTLVTVSS
VL: DIQMTQSPSSLSASVGDRVTITCRASQSISSYLSWYQQKPGKAPKLLIYRASTLASGVPSRFSGSRSGTDFTLTISSLQPEDFATYYCQQSYSSSNVDNTFGGGTKVEIK
On to B15, for which the off-rate (koff) stood at 0.00173 s⁻¹.
